Experimental data from US20050043231A1, “Therapy for growth hormone induced insulin resistance in juveniles with growth disorders” (priority 2001, published 2005).

How the values were obtained:
[1] = Insulin sensitivity by Bergman's minimal model (frequently sampled iv glucose tolerance test with tolbutamide) in short SGA children on rhGH therapy; type: in vivo, human
Text: All subjects were born SGA, had marked short stature (height approximately—3 standard deviation score (SDS)) with a height velocity<25th percentile for >1 year prior to starting rhGH therapy. SGA was defined as a birth weight<10th percentile for gestational age. Additional enrolment criteria for inclusion into the study included; no change in Tanner pubertal stage and/or testicular volumes throughout the study period, normal GH response to clonidine stimulation (defined as a GH level≧7 μgm/L), absence of both islet cell antibodies (<10 Juvenile Diabetes Foundation units) and insulin autoantibodies to exclude type 1 prediabetes. Prepubertal subjects were defined as males with a testicular volume<4 ml and girls with tanner stage 1 breast development. Subjects were excluded if; a chromosomal, intrauterine infection or syndromal cause for SGA was identified, a first degree relative had type 2 diabetes mellitus, or medical therapy was taken that was known to influence SI. Subjects were recruited from the Endocrinology Clinics at Starship Children's Hospital. Birth weight and length were converted into SDSs to correct for age and sex. Body mass index (BMI) was used as a measure of relative obesity and expressed as BMI SDS.
Insulin sensitivity (SI) was measured in 11 subjects prior to and 12 subjects during rhGH treatment. In addition five prepubertal subjects agreed to have rhGH therapy suspended for three months with reassessment of SI. Bergman's minimal model was used to measure SI, acute insulin response (AIR) and glucose effectiveness (Sg). The data was provided from a 90 min frequently sampled iv glucose tolerance test with tolbutamide, which had been modified and validated for use in children as previously described (Cutfield et al. 1990). SI is a measure of insulin mediated glucose uptake, AIR a measure of insulin secretory capacity and Sg is a measure of glucose stimulated glucose uptake independent of insulin. These three indices are characteristic measurements useful for determining glycemic states. Plasma glucose and insulin was measured from all samples and the values used for measurement of SI, AIR and Sg. Approval for the study was provided by the North Health Ethics Committee and signed, informed consent was obtained from subjects and their parents.
Plasma glucose concentration was measured using a Hitachi 911 automated random access analyser (Tokyo, Japan) with an interassay coefficient variation of 1.2% (Trinder P. Determination of blood glucose using an oxidase-peroxidase system with a non-carcinogenic chromogen. J Clin Pathol […]; 22: 158-61). Insulin was determined by Abbotts IMX microparticle enzyme immunoassay with an interassay coefficient of variation of <5%. Plasma IGF-I was measured using an established IGF binding protein blocked radioimmunoassay (Blum et al. Radioimmunoassays for insulin-like growth factors and their binding proteins. Growth Reg. 1994; 4: (Suppl.) 11-19). The IGF-I detection limit was 1.3 ng/ml with intra-assay and inter-assay coefficients of variation of 5.0% and 9.2%, respectively. Plasma IGF-II samples were intially treated with acid-ethanol cryoprecipitation to remove IGF II from binding proteins. IGF II was then measured by RIA using a highly specific polyclonal antiserum (Blum et al. A specific radioimmunoassay for insulin-like growth factor II. The interference of IGF binding proteins can be blocked by excess IGF-I. Acta Endcrinol (Copenh) 1988; 129:427-435). […]

[2] = Fasting serum IGF-I, IGF-II and leptin and BMI SDS in short SGA children on rhGH therapy; type: in vivo, human
Text: All subjects were born SGA, had marked short stature (height approximately—3 standard deviation score (SDS)) with a height velocity<25th percentile for >1 year prior to starting rhGH therapy. SGA was defined as a birth weight<10th percentile for gestational age. Additional enrolment criteria for inclusion into the study included; no change in Tanner pubertal stage and/or testicular volumes throughout the study period, normal GH response to clonidine stimulation (defined as a GH level≧7 μgm/L), absence of both islet cell antibodies (<10 Juvenile Diabetes Foundation units) and insulin autoantibodies to exclude type 1 prediabetes. […] Body mass index (BMI) was used as a measure of relative obesity and expressed as BMI SDS.
Plasma glucose concentration was measured using a Hitachi 911 automated random access analyser (Tokyo, Japan) with an interassay coefficient variation of 1.2% (Trinder P. Determination of blood glucose using an oxidase-peroxidase system with a non-carcinogenic chromogen. J Clin Pathol 1995; 22: 158-61). Insulin was determined by Abbotts IMX microparticle enzyme immunoassay with an interassay coefficient of variation of <5%. Plasma IGF-I was measured using an established IGF binding protein blocked radioimmunoassay (Blum et al. Radioimmunoassays for insulin-like growth factors and their binding proteins. Growth Reg. 1994; 4: (Suppl.) 11-19). […]

[3] = Fasting plasma insulin, glucose, IGF-I and FFA in IUGR rats treated for 28 days; type: in vivo, rat
Method: (§1) Studies of insulin resistance in vivo in rats were carried out in animals in which insulin resistance was produced by fetal undernutrition (“IUGR”) as described previously (Woodall et al. 1996). Virgin Wistar rats (age 100±5 days) were time mated using a rat estrus cycle monitor to assess the stage of estrus of the animals prior to introducing the male. After confirmation of mating, rats were housed individually in standard rat cages containing wood shavings as bedding and free access to water. All rats were kept in the same room with a constant temperature maintained at 25° C. and a 12-h light: 12-h darkness cycle. Animals received an undernutrition diet throughout pregnancy that was 30% of an ad libitum (“AD”) diet. Food intake and maternal weights were recorded daily until birth. A total of 40 male pups were recruited for the study. After birth, pups were weighed and litter size recorded. Litter size was then adjusted to eight pups to ensure standardised nutrition. Male pups from undernourished mothers were cross-fostered onto dams which received AD feeding throughout pregnancy to ensure post-natal viability. After weaning all male offspring were fed a hypercaloric diet ad libitum for the remainder of the study (total digestible energy 4846 kcal/kg, protein 31.8%, fat 30%, fat/energy ratio 55.72%, protein/energy ratio 26.25%). The fat content of the hypercaloric diet was chosen to be typical of many Western diets known to be associated with abnormalities in glucose metabolism in humans.
At 25 days of age, three days after weaning, study animals were enrolled into treatment groups for 28 days. The study groups were weight matched. The 40 study males were divided into four treatment groups, each of 10 animals; (a) no treatment (control group), (b) troglitazone and metformin, (c) recombinant bovine GH (GH) and (d) GH, troglitazone and metformin. […]
(§2) Troglitazone was added to food at approximately 100 mg/kg/day based on daily food consumption. Metformin was mixed with drinking water and the dose calculated to 500 mg/kg/day based on daily water consumption. […] Body weight and food intake of all offspring were measured daily for the first 2 weeks then every second day until study completion. […]
At day 53, systolic blood pressure measurements were recorded using tail cuff plethysmography (Blood pressure analyser IITC, Life Science, Woodland Hills, Calif., USA) as described previously (Vickers et al. 2000). […] Pulses in pressure were recorded during deflation at a rate of 3 mmHg/sec and the reappearance of a pulse was used to determine systolic blood pressure. […]
IGF-I in rat blood plasma was measured using an IGF binding protein (IGFBP)-blocked rat RIA described previously (Blum et al. 1994). […] Rat insulin was measured by an in-house radioimmunoassay (Vickers et al. 2000, Lewis et al. 1999). […]

[4] = Tail cuff systolic blood pressure in IUGR rats; type: in vivo, rat; settings: day 53, tail cuff, vs no treatment group and GH treated group
Method: Studies of insulin resistance in vivo in rats were carried out in animals in which insulin resistance was produced by fetal undernutrition (“IUGR”) as described previously (Woodall et al. 1996). Virgin Wistar rats (age 100±5 days) were time mated using a rat estrus cycle monitor to assess the stage of estrus of the animals prior to introducing the male. After confirmation of mating, rats were housed individually in standard rat cages containing wood shavings as bedding and free access to water. All rats were kept in the same room with a constant temperature maintained at 25° C. and a 12-h light: 12-h darkness cycle. Animals received an undernutrition diet throughout pregnancy that was 30% of an ad libitum (“AD”) diet. Food intake and maternal weights were recorded daily until birth. […] After birth, pups were weighed and litter size recorded. […]
as §2
At day 53, systolic blood pressure measurements were recorded using tail cuff plethysmography (Blood pressure analyser IITC, Life Science, Woodland Hills, Calif., USA) as described previously (Vickers et al. 2000). […]

[5] = Growth and body composition in IUGR rats; type: in vivo, rat
Method: as §1
At 25 days of age, three days after weaning, study animals were enrolled into treatment groups for 28 days. The study groups were weight matched. […]
as §2
Statistical comparisons were carried out using the statistical package SAS (version 8) for personal computers. […] For analysis of growth and body composition data (BMI and % retroperitoneal fat), each of the four treatment groups were analysed as separate treatments and then Dunnetts test was used to compare the three active treatments with the control group. Data are expressed as mean±SEM, with p<0.05.
Body composition was examined in several different ways; body mass index (BMI), retroperitoneal fat expressed as a percentage of body weight (retroperitoneal fat %) and gonadal fat expressed as a percentage of body weight (gonadal fat %). […]

Molecule: rhGH: recombinant human growth hormone given to short SGA children
- compensatory rise in AIR (acute insulin response) ([1]; during rhGH therapy, p<0.009): 123±59%
- recovery of SI after rhGH suspended ([1]; five prepubertal subjects, three months after rhGH therapy was suspended): no recovery in SI
- fall in SI during rhGH therapy, prepubertal children ([1]; prepubertal subjects): 48%
- fall in SI during rhGH therapy, pubertal subjects ([1]; pubertal subjects): 35%
- fall in SI (insulin sensitivity) during rhGH therapy ([1]; short SGA children, all subjects, 21±6 months of rhGH, p=0.018): 44±10%
- adverse event: type 2 diabetes mellitus ([2]; one subject, 12 months after cessation of 4.1 years of rhGH therapy): developed type 2 diabetes mellitus
- fasting serum IGF-I level ([2]; with rhGH therapy, 127±37 pretreatment, p<0.001): 189±46 μgm/l

B1: GH: recombinant bovine GH, subcutaneously 10 μgm/gm/day in two divided doses in IUGR rats (protein, UniProt P01246 27-217, looked up)
Somatotropin: AFPAMSLSGLFANAVLRAQHLHQLAADTFKEFERTYIPEGQRYSIQNTQVAFCFSETIPAPTGKNEAQQKSDLELLRISLLLIQSWLGPLQFLSRVFTNSLVFGTSDRVYEKLKDLEEGILALMRELEDGTPRAGQILKQTYDKFDTNMRSDDALLKNYGLLSCFRKDLHKTETYLRVMKCRRFGEASCAF
- fasting insulin levels ([3]; 28 days of treatment, GH vs no treatment p<0.0001, GH plus sensitisers vs GH alone p=0.01): substantially and significantly increased
- plasma free fatty acids (FFA) ([3]; fasting): fall observed in plasma FFA
- plasma glucose ([3]; fasting, no treatment group 7.8±0.3, p<0.0001): 11.9 ± 0.9 mmol/L
- fasting IGF-I levels ([3]; p<0.0001): higher
- systolic BP [4]: trend of increasing systolic BP
- nose to anus length ([5]; IUGR rats at study end, no treatment group 179±2): 188±1 mm
- gonadal fat % (percentage of body weight) ([5]; IUGR rats, across the four groups): increase in gonadal fat %
- retroperitoneal fat % (percentage of body weight) ([5]; IUGR rats, no treatment group 0.97±0.06%): 0.69±0.05%
- BMI ([5]; IUGR rats, no treatment group 6.8±0.2): 6.9±0.1
